From publication PMC4461315, “A Mutant Library Approach to Identify Improved Meningococcal Factor H Binding Protein Vaccine Antigens” (PLoS ONE, 2015)

Target: T1, human complement Factor H (human, UniProt P08603 19-1231)
T1 construct: also called FH; human FH; source: bought: Complement Technologies (purified human FH)
Assay: SPR
Details: both partners purified

T1 sequence (P08603 19-1231): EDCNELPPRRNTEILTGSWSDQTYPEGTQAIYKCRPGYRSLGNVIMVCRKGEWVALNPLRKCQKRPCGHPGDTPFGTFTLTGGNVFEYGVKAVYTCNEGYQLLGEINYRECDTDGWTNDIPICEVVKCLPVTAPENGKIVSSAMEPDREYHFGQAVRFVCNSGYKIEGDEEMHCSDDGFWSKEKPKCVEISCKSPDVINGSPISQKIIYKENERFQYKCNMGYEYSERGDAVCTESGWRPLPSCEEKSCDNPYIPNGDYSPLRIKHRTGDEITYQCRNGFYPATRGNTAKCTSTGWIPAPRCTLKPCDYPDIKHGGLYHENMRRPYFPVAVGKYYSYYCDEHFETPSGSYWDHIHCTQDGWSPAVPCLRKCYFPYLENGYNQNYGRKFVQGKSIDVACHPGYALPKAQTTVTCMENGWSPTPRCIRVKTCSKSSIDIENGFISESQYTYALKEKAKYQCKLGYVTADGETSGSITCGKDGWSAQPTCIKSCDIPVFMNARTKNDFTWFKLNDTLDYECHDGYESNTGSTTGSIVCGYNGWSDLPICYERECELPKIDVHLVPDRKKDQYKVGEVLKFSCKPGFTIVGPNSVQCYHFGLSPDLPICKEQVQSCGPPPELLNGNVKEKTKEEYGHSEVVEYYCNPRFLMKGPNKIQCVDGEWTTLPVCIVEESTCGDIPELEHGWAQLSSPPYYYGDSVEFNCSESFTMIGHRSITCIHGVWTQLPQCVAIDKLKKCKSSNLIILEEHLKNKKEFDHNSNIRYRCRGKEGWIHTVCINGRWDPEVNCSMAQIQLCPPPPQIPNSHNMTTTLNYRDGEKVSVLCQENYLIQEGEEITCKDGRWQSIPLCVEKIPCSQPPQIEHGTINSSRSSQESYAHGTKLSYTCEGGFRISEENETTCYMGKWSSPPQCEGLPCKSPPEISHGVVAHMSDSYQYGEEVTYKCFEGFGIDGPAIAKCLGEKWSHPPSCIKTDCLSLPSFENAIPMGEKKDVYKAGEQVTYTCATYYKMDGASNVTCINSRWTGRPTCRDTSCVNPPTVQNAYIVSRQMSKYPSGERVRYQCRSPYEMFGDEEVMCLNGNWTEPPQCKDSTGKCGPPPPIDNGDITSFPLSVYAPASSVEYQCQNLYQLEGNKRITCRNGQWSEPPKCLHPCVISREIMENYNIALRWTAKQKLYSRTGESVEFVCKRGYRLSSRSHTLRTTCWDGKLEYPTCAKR

B1: wild-type FHbp ID 1, soluble recombinant (natural protein)
chain: CSSGGGGVAADIGAGLADALTAPLDHKDKGLQSLTLDQSVRKNEKLKLAAQGAEKTYGNGDSLNTGKLKNDKVSRFDFIRQIEVDGQLITLESGEFQVYKQSHSALTAFQTEQIQDSEHSGKMVAKRQFRIGDIAGEHTSFDKLPEGGRATYRGTAFGSDDAGGKLTYTIDFAAKQGNGKIEHLKSPELNVDLAAADIKPDGKRHAVISGSVLYNQAEKGSYSLGIFGGKAQEVAGSAEVKTVNGIRHIGLAAKQ
notes: also called WT
  Kd: 17 nM
